These results are taken from PMC4522956, “Unsaturated fatty acids as high-affinity ligands of the C-terminal Per-ARNT-Sim domain from the Hypoxia-inducible factor 3α” (Scientific Reports, 2015).

For this test, the target named is T1, HIF-1β PASb labeled with FITC (human (cDNA library from the breast …, UniProt P27540 349-467, FITC (fluorescein isothiocyanate) label, sites not stated)).
T1 construct: HIF-1β (ARNT), PASb domain, Pro349-Ser467 of UniProt P27540; Same construct as m2, labeled with a 20-fold molar excess of FITC in borate buffer pH 8.5; also called PASb-1β labeled with FITC; PASb-1β; source: E. coli Rosetta-2, purified (TALON, MonoQ, Superdex 75), then labeled with FITC; not shown: 6xHis, N-terminal, cleaved
Description: fluorescence polarisation; unlabeled PASb-1α or PASb-3α serially diluted 1:2 from about 1 mM, mixed with FITC-labeled PASb-1β at 20 nM final; 30 mM Hepes pH 7.5, 150 mM NaCl, 0.5 mM TCEP; room temperature; triplicate. The following applies: both partners purified. On the technique in general: In fluorescence polarisation assays a small probe gives low polarisation when free and higher when bound to something large.

T1 sequence (P27540 349-467): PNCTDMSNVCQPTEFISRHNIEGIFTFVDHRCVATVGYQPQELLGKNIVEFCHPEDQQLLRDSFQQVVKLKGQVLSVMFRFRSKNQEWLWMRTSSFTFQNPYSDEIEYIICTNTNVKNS

B1: HIF-1α PASb (domain or fragment)
chain: not shown
notes: Hypoxia-inducible factor 1α, PASb domain, Asp238-His348 of UniProt Q16665; Cloned NdeI/XhoI into pET28a; residues of the vector probably remain at the N-terminus after thrombin cleavage (surmise); also called PASb-1α; source: E. coli Rosetta-2, purified (TALON, MonoQ, Superdex 75); not shown: 6xHis, N-terminal, cleaved
Consider B1, for which the binding result is listed as “binds”.
